Common to all, as to assay: FM-AFM imaging
Conditions in all cases: remark: other sources report otherwise

Assay [1] deals with T1, annexin A5, P08758.
T1 chain: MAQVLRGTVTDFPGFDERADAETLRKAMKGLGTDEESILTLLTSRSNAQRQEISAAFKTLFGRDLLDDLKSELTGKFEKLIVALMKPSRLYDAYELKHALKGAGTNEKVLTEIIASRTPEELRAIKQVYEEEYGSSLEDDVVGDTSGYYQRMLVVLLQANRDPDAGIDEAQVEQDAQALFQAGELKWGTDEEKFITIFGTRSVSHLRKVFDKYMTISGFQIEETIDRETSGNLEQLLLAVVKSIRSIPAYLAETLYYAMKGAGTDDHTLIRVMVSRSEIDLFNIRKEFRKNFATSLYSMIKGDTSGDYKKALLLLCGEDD

Assay [2] has as its target T1, annexin A5, P08758.
The target in assay [3] is T1, annexin A5, P08758.

B1: annexin A5, P08758 1-320 (natural protein)
chain: MAQVLRGTVTDFPGFDERADAETLRKAMKGLGTDEESILTLLTSRSNAQRQEISAAFKTLFGRDLLDDLKSELTGKFEKLIVALMKPSRLYDAYELKHALKGAGTNEKVLTEIIASRTPEELRAIKQVYEEEYGSSLEDDVVGDTSGYYQRMLVVLLQANRDPDAGIDEAQVEQDAQALFQAGELKWGTDEEKFITIFGTRSVSHLRKVFDKYMTISGFQIEETIDRETSGNLEQLLLAVVKSIRSIPAYLAETLYYAMKGAGTDDHTLIRVMVSRSEIDLFNIRKEFRKNFATSLYSMIKGDTSGDYKKALLLLCGEDD
As to B1, the percentage of unoccupied hollow sites (vacancies, sites without an H-trimer) in the assay with annexin A5, P08758 [1] came out at 65.9%; in the assay with annexin A5, P08758 [2] it was 73.6%; in the assay with annexin A5, P08758 [3], 56.1%. The stoichiometry N with annexin A5, P08758 [2] worked out at 3.

Values taken from PMC10368004.
